This passage reports koff results from EP3150637A1 (F. Hoffmann-La Roche AG, dated 2017).

The test addresses T1, human VEGFA-121 (VEFG-A-121-His) (human, UniProt P15692-9 27-147).
T1 construct: Captured on an anti-His antibody surface; not shown: His tag
T1 sequence (looked up): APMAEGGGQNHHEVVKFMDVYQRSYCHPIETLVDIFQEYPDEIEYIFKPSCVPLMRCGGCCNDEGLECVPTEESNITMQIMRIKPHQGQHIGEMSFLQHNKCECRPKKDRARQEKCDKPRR
Put plainly: SPR (Biacore T200), VEGF-A-121-His captured on anti-His, antibody in solution, Langmuir 1:1.

B1: Ang2VEGF-0477 (bispecific antibody, human IgG1, kappa)
light 1: QPGLTQPPSVSVAPGQTARITCGGNNIGSKSVHWYQQKPGQAPVLVVYDDSDRPSGIPERFSGSNSGNTATLTISRVEAGDEADYYCQVWDSSSDHYVFGTGTKVTVLRTVAAPSVFIFPPSDEKLKSGTASVVCLLNNFYPREAKVQWKVDNALQSGNSQESVTEQDSKDSTYSLSSTLTLSKADYEKHKVYACEVTHQGLSSPVTKSFNRGEC
heavy 1: not shown
light 2: DIQMTQSPSSLSASVGDRVTITCSASQDISNYLNWYQQKPGKAPKVLIYFTSSLHSGVPSRFSGSGSGTDFTLTISSLQPEDFATYYCQQYSTVPWTFGQGTKVEIKSSASTKGPSVFPLAPSSKSTSGGTAALGCLVKDYFPEPVTVSWNSGALTSGVHTFPAVLQSSGLYSLSSVVTVPSSSLGTQTYICNVNHKPSNTKVDKKVEPKSC
heavy 2: not shown
notes: Bivalent bispecific CrossMAb CH1-CL
What is called koff is a measure of how fast the partners let go of each other. A higher koff goes with a short-lived complex. B1 had a koff of 6.11e-05 s⁻¹.
